Residue numbers refer to the chain shown, from its start.

The values that follow come from patent publication US20130288274A1 (BIO RAD LABORATORIES, published 2013).

The data set concerns the molecule itself. Nature of the data set: SDS-PAGE and size-exclusion chromatography; self-association. The procedure: The affinity purified protein was analyzed by SDS-PAGE gel electrophoresis (FIG. 1). The D2-hexamers that were further purified on the size-exclusion column as described above were analyzed by SDS-PAGE (FIG. 1). […] This aggregation of the hexamers is so strong that it is not dissociated under the denaturing conditions used in SDS-PAGE. Additionally, both hexamer proteins migrated at the position of about 45 kd in a size-exclusion chromatogram. Without being bound to a particular theory, the surprising tendency of the hexamers to aggregate to form a trimer of hexamers may contribute to the improved immunoreactivity of the D2 hexamer.

B1: classic D2 hexamer with His tag (His-tagged recombinant deamidated gliadin protein) (other)
chain: MRGSHHHHHHGSPEFQPEQPQQSFPEQERPFGGGGSQPEQPQQSFPEQERPFGGGGSQPEQPQQSFPEQERPFGGGGSQPEQPQQSFPEQERPFGGGGSQPEQPQQSFPEQERPFGGGGSQPEQPQQSFPEQERPF
notes: also called classic DGP; DGP hexamer
Turning to B1, the binding result was “binds”.

B2: lysine-containing D2 hexamer with His tag (His-tagged Recombinant Deamidated Gliadin Peptide with a lysine substituted for a glutamic acid residue at position … (other)
chain: B1 chain with E14K
notes: also called lysine-containing DGP; lysine-containing DGP hexamer
Take B2: the binding result is “binds”.
